Assay results as given in patent CN111303280A (INST MILITARY MEDICINE ACADEMY MILITARY SCIENCES PLA, dated 2020).

Columns and labels:
SARS-CoV-2 RBD抗原 (重组) = target: T1, SARS-CoV-2 RBD抗原 (重组) (SARS-CoV-2, UniProt P0DTC2 319-541); assay: ELISA, coated RBD antigen 2 μg/mL
T1 construct: domain: RBD

[1] = target: T2, SARS-CoV-2 刺突糖蛋白S (重组S抗原) (SARS-CoV-2, UniProt P0DTC2 16-1213); assay: BLI (Fortebio Octet QKe), 4A8 captured on AHC sensors, S protein as analyte
SARS-CoV-2 S2抗原 (重组) = target: T3, SARS-CoV-2 S2抗原 (重组) (SARS-CoV-2, UniProt P0DTC2 686-1213); assay: ELISA, coated S2 antigen 2 μg/mL
T3 construct: domain: S2

[2] = target: T2, SARS-CoV-2 刺突糖蛋白S (重组S抗原); assay: ELISA, coated S antigen 2 μg/mL, HRP anti-human Fc

B1: 抗SARS-CoV-2全人源单克隆抗体4A8 (antibody, V domains shown)
VH: EVQLVESGAEVKKPGASVKVSCKVSGYTLTELSMHWVRQAPGKGLEWMGGFDPEDGETMYAQKFQGRVTMTEDTSTDTAYMELSSLRSEDTAVYYCATSTAVAGTPDLFDYYYGMDVWGQGTTVTVSS
VL: EIVMTQSPLSSPVTLGQPASISCRSSQSLVHSDGNTYLSWLQQRPGQPPRLLIYKISNRFSGVPDRFSGSGAGTDFTLKISRVEAEDVGVYYCTQATQFPYTFGQGTKVDIK
notes: also called 单抗4A8
binding result (SARS-CoV-2 RBD抗原 (重组)): no binding (tested: 首孔9ug/ml)
Kd [1]: 1 nM
koff [1]: 7.77e-05 s⁻¹
kon [1]: 77500 M⁻¹ s⁻¹
binding result (SARS-CoV-2 S2抗原 (重组)): no binding (tested: 首孔9ug/ml)
EC50 [2]: 4.6 ng/mL
